{
  "source": "paper PMC3888430",
  "about": "“Sorcin Links Calcium Signaling to Vesicle Trafficking, Regulates Polo-Like Kinase 1 and Is Necessary for Mitosis” (PLoS ONE, 2014)",
  "binders": {"B1": {"name": "AlexaFluor 532-A2C sorcin (natural protein, human)", "chain": "MCYPGHPGAGGGYYPGGYGGAPGGPAFPGQTQDPLYGYFAAVAGQDGQIDADELQRCLTQSGIAGGYKPFNLETCRLMVSMLDRDMSGTMGFNEFKELWAVLNGWRQHFISFDTDRSGTVDPQELQKALTTMGFRLSPQAVNSIAKRYSTNGKITFDDYIACCVKLRALTDSFRRRDTAQQGVVNFPYDDFIQCVMSV", "modifications": "AlexaFluor 532 C5-maleimide on thiol groups (A2C mutant made for the conjugation)", "notes": "In the functional row this id stands for unlabelled human wt sorcin (HS) from the same expression system; also called A2C-sorcin-AlexaFluor 532 maleimide; source: E. coli BL21(DE3), purified according to Meyers et al; labelled with AlexaFluor 532 C5-maleimide"}},
  "experiment_in_all_cases": "peptide or protein array; ProtoArray human protein microarray (proteins arrayed in duplicate on nitrocellulose coated glass slide, native conditions) probed with 1 µM AlexaFluor 532-A2C sorcin in the presence of either 1 mM EDTA or 1 mM CaCl2",
  "details_in_all_cases": "both partners purified",
  "key": {"[1]": {"molecular_target": "T1, Aurora A kinase, human, on ProtoArray (human, UniProt O14965 1-403)", "T1 construct": "Aurora A kinase, human, full length protein of the ProtoArray; source: bought: ProtoArray human protein microarray (Life technologies), individually purified and arrayed", "T1 sequence (looked up)": "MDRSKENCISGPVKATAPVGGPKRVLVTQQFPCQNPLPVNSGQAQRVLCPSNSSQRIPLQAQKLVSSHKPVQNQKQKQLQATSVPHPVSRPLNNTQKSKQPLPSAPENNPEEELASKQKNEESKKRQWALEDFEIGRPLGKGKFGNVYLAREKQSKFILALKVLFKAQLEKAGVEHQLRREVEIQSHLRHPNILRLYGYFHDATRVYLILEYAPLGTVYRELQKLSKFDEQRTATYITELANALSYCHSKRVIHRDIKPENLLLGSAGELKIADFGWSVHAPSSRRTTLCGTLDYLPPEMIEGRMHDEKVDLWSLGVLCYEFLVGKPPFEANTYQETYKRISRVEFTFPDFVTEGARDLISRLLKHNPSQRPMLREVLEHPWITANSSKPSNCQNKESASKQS"}, "[2]": {"molecular_target": "T2, Annexin 11, human, on ProtoArray (human, UniProt P50995 1-505)", "T2 construct": "Annexin 11, human, full length protein of the ProtoArray; source: bought: ProtoArray human protein microarray (Life technologies), individually purified and arrayed", "T2 sequence (P50995 whole entry)": "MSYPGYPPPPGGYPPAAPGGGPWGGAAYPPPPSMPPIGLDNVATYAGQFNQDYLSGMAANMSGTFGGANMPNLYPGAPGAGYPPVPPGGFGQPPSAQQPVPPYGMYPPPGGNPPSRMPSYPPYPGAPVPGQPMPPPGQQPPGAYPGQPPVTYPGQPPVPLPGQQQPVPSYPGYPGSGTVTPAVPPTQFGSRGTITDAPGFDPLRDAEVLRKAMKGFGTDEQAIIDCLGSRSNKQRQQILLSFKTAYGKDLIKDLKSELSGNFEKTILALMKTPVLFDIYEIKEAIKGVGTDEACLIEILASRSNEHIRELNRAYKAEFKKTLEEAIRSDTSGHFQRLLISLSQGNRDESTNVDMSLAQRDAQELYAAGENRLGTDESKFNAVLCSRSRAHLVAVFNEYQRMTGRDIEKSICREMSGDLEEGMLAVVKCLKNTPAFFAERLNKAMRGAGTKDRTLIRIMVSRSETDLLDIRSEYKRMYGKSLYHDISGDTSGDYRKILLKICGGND"}, "[3]": {"molecular_target": "T3, CSNK2A2, human, on ProtoArray (human, UniProt P19784 1-350)", "T3 construct": "CSNK2A2 (casein kinase II subunit alpha'), human, full length protein of the ProtoArray; source: bought: ProtoArray human protein microarray (Life technologies), individually purified and arrayed", "T3 sequence (P19784 whole entry)": "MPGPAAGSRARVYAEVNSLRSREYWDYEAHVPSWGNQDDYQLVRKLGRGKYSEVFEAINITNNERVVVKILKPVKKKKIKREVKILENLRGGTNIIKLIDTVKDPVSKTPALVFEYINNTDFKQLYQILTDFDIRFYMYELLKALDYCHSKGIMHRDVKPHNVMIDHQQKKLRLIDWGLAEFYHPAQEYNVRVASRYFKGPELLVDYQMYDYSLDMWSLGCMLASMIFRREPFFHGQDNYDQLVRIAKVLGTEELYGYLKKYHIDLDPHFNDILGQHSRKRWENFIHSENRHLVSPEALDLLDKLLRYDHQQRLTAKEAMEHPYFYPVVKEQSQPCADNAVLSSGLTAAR"}, "[4]": {"molecular_target": "T4, Polo-like kinase 1 (PLK1), human, on ProtoArray (human, UniProt P53350 1-603)", "T4 construct": "Polo-like kinase 1, human, full length protein of the ProtoArray; In the functional row this id stands for purified recombinant PLK1 bought from Cell Signaling Technology (#7728); source: bought: ProtoArray human protein microarray (Life technologies), individually purified and arrayed", "T4 sequence (P53350 whole entry)": "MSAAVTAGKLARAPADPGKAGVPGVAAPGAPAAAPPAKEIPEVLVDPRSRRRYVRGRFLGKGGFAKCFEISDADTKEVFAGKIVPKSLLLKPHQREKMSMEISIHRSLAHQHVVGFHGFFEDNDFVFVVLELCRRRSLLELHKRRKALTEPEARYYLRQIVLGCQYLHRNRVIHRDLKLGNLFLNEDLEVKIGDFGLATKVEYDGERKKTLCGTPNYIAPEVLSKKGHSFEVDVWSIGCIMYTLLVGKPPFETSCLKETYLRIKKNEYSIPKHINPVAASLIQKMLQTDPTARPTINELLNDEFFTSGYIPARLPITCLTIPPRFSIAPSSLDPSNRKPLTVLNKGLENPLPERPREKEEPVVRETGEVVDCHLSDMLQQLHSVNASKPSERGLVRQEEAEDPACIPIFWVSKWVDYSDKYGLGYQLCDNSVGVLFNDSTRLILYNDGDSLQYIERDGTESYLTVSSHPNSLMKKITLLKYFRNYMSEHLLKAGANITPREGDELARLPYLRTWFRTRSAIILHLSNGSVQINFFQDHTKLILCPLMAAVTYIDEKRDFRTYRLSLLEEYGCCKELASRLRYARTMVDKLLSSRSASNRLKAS"}, "[5]": {"molecular_target": "T5, Aurora B kinase, human, on ProtoArray (human, UniProt Q96GD4 1-344)", "T5 construct": "Aurora B kinase, human, full length protein of the ProtoArray; source: bought: ProtoArray human protein microarray (Life technologies), individually purified and arrayed", "T5 sequence (Q96GD4 whole entry)": "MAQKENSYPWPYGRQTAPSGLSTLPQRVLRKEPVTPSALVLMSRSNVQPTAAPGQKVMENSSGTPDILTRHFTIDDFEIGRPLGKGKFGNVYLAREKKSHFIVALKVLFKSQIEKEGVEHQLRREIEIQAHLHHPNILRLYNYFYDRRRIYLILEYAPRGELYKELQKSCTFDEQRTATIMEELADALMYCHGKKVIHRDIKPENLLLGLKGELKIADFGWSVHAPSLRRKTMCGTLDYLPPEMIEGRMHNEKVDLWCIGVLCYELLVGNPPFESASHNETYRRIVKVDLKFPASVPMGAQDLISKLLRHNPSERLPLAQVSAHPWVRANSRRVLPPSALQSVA"}, "[6]": {"molecular_target": "T6, CSNK2A1, human, on ProtoArray (human, UniProt P68400 1-391)", "T6 construct": "CSNK2A1 (casein kinase II subunit alpha), human, full length protein of the ProtoArray; source: bought: ProtoArray human protein microarray (Life technologies), individually purified and arrayed", "T6 sequence (P68400 whole entry)": "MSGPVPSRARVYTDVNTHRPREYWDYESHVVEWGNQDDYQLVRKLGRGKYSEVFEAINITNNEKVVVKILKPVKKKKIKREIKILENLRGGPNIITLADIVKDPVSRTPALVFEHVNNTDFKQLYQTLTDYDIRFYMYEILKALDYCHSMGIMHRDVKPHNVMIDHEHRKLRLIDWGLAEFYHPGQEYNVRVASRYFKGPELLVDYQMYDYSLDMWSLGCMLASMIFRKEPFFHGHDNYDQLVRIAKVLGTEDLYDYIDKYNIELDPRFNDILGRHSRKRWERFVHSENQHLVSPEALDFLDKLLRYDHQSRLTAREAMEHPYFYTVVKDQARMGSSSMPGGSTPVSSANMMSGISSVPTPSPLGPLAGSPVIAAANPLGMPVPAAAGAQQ"}},
  "data": [
    {"binder": "B1", "values": [
      {"measurement": "binding result", "setting": "[1]", "result": "binds"},
      {"measurement": "binding result", "setting": "[2]", "result": "binds"},
      {"measurement": "binding result", "setting": "[3]", "result": "binds"},
      {"measurement": "fold increase of the interaction with 1 mM calcium against EDTA", "setting": "[4]", "result": 1.5, "unit": "fold"},
      {"measurement": "binding result", "setting": "[5]", "result": "binds"},
      {"measurement": "binding result", "setting": "[6]", "result": "binds"}
    ]}
  ]
}
